# Laboratory results: article PMC12232546 (Proceedings of the National Academy of Sciences of the …, 2025)
# B1: 15-mer WAVE2-derived peptide Ac-SEDNLPPPPAEFSYP-NH2 (peptide)
# peptide: Ac-SEDNLPPPPAEFSYP-NH2
# Molecular target: VASP-EVH1 (human VASP aa1-115, GST cleaved with thrombin) (human, UniProt P50552 1-115)
# Test: ITC
# Chain of VASP-EVH1 (human VASP aa1-115, GST cleaved with thrombin) (P50552 1-115): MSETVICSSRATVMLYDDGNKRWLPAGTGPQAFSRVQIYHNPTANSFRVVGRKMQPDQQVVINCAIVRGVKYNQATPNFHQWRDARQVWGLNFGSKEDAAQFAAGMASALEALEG
binder,measurement,value
B1,Kd,250 µM
